Experimental findings from the supplement of paper PMC7877785 are described below.

± gives the uncertainty stated by the source.

The data set in a line: self-splicing fitness, log relative to wild type (ln ratio); higher = more splicing; Tetrahymena group I intron in knt gene, E. coli kanamycin selection, DiMSum; sequences stand for … in CUCUCU…GGAGGGAAAAGUUAUCAGGCAUGCACCUGGUAGCUAGUCUUUAAACCAAUAGAUUGCAUCGGUUUAAAAGGCAAGACCGUCAAAUUGCGGGAAAGGGGUCAACAGCCGUUCAGUACCAAGUCUCAGGGGAAACUUUGAGAUGGCCUUGCAAAGGGUAUGGUAAUAAGCUGACGGACAUGGUCCUAACCACGCAGCCAAGUCCUAAGUCAACAGAUCUUCUGUUGAUAUGGAUGCAGUUCACAGACUAAAUGUCGGUCGGGGAAGAUGUAUUCUUCUCAUAAGAUAUAGUCGGACCUCUCCUUAAUGGGAGCUAGCGGAUGAAGUGAUGCAACACUGGAGCCGCUGGGAACUAAUUUGUAUGCGAAAGUAUAUUGAUUAGUUUUGGAGUACUCGUGGUCG
The essentials:
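A randomised library covering all eight P1ex-region intron nucleotides was built with the intron in the knt kanamycin-resistance gene on pET-22b(+) and held in E. coli BL21(DE3). Cells were grown overnight at 37°C or 30°C on LB agar, with or without 25 μg/mL kanamycin, plus 100 μg/mL carbenicillin, 50 μM IPTG and 0.2% rhamnose, and pooled colonies were amplicon-sequenced on an Illumina HiSeq 2500. DiMSum fitness is the error-weighted combination of wild-type-normalised replicate fold changes, kanamycin versus none.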

Consider CCGGAGCAAUAUUACGUCGG, for which the “self-splicing fitness (ln)” value by setting is: (30 °C) -3.63 ± 0.21; (37 °C) -2.82 ± 0.3.
For UCUAAGCAAUAUUACGGGAC, the “self-splicing fitness (ln)” value is, setting by setting: (30 °C) -3.56 ± 0.35; (37 °C) -2.34 ± 0.4.
Regarding UGGCAGCAAUAUUACGCUCC, the “self-splicing fitness (ln)” value (30 °C) was -2.19 ± 0.37.
As to UCAGAGCAAUAUUACGAUCU, the “self-splicing fitness (ln)” value runs as follows: (30 °C) -3.62 ± 0.21; (37 °C) -2.88 ± 0.28.
As for AUGCAGCAAUAUUACGACCA, the “self-splicing fitness (ln)” value (30 °C) was -1.45 ± 0.17 and the “self-splicing fitness (ln)” value (37 °C) is -0.579 ± 0.18.
The matching figures for UAGGAGCAAUAUUACGCGUG: -2.31 ± 0.12 and -0.579 ± 0.12.
The matching figures for AAUUAGCAAUAUUACGUCGC: -3.08 ± 0.27 and -1.38 ± 0.21.
The matching figures for GUCGAGCAAUAUUACGCAAC: -1.92 ± 0.33 and -0.123 ± 0.22.
GGUCAGCAAUAUUACGUUGC: the “self-splicing fitness (ln)” value reads like this: (30 °C) -1.98 ± 0.098; (37 °C) -0.999 ± 0.1.
As to GCGCAGCAAUAUUACGUACU, the “self-splicing fitness (ln)” value runs as follows: (30 °C) -1.32 ± 0.072; (37 °C) -0.505 ± 0.092.
As to UGAAAGCAAUAUUACGAAUA, the “self-splicing fitness (ln)” value is -0.955 ± 0.098 (30 °C) and -0.396 ± 0.12 (37 °C).
Regarding UUGAAGCAAUAUUACGAGAA, the “self-splicing fitness (ln)” value is -1.9 ± 0.17 (30 °C) and -1.7 ± 0.18 (37 °C).
On to UAUAAGCAAUAUUACGCAAC, for which, where the note is “30 °C”, the “self-splicing fitness (ln)” value is -3.03 ± 0.4.
In the case of UUGCAGCAAUAUUACGAAAC, the “self-splicing fitness (ln)” value by setting is: (30 °C) -3.32 ± 0.41; (37 °C) -1.87 ± 0.45.
Turning to UAGGAGCAAUAUUACGCGGA, the “self-splicing fitness (ln)” value is, setting by setting: (30 °C) -3.57 ± 0.38; (37 °C) -2.52 ± 0.26.
Consider CUAGAGCAAUAUUACGGUGG, for which the “self-splicing fitness (ln)” value reads like this: (30 °C) -0.455 ± 0.06; (37 °C) -0.563 ± 0.089.
In the case of AAUUAGCAAUAUUACGCGUA, the “self-splicing fitness (ln)” value reads like this: (30 °C) -1.07 ± 0.12; (37 °C) -0.804 ± 0.14.
With UUACAGCAAUAUUACGCAAA, the “self-splicing fitness (ln)” value (30 °C) is -1.83 ± 0.17 and the “self-splicing fitness (ln)” value (37 °C) is -0.688 ± 0.12.
On to GGAAAGCAAUAUUACGUUUA, for which the “self-splicing fitness (ln)” value (30 °C) is -1.89 ± 0.11 and the “self-splicing fitness (ln)” value (37 °C) was -1.16 ± 0.11.
For CCUAAGCAAUAUUACGUGGU, the “self-splicing fitness (ln)” value was -4.74 ± 0.32 (30 °C) and -3.13 ± 0.25 (37 °C).
As to UACGAGCAAUAUUACGCAGG, the “self-splicing fitness (ln)” value was -2.88 ± 0.21 (30 °C) and -2.64 ± 0.22 (37 °C).
Consider AAGCAGCAAUAUUACGGACG, for which the “self-splicing fitness (ln)” value is -2.62 ± 0.14 (30 °C) and -0.565 ± 0.14 (37 °C).
Turning to UGUAAGCAAUAUUACGCGUU, the “self-splicing fitness (ln)” value reads like this: (30 °C) -2.69 ± 0.26; (37 °C) -0.234 ± 0.2.
On to CGAGAGCAAUAUUACGGGCU, for which the “self-splicing fitness (ln)” value (30 °C) was -3.67 ± 0.22 and the “self-splicing fitness (ln)” value (37 °C) is -2.18 ± 0.28.
Consider AUGUAGCAAUAUUACGAACG, for which the “self-splicing fitness (ln)” value was -1.27 ± 0.13 (30 °C) and -0.894 ± 0.16 (37 °C).
Regarding CCCCAGCAAUAUUACGUGAU, the “self-splicing fitness (ln)” value (30 °C) is -3.64 ± 0.11 and the “self-splicing fitness (ln)” value (37 °C) was -2.96 ± 0.18.
Consider UUCGAGCAAUAUUACGUAUG, for which the “self-splicing fitness (ln)” value (30 °C) was -2.17 ± 0.13 and the “self-splicing fitness (ln)” value (37 °C) is -2.49 ± 0.19.
Consider CAGUAGCAAUAUUACGAGCU, for which the “self-splicing fitness (ln)” value (30 °C) was -3.07 ± 0.28 and the “self-splicing fitness (ln)” value (37 °C) is 0.322 ± 0.19.
As to CCCCAGCAAUAUUACGAUUA, the “self-splicing fitness (ln)” value is, setting by setting: (30 °C) -3.4 ± 0.2; (37 °C) -2.87 ± 0.22.
With UGUGAGCAAUAUUACGUUGA, the “self-splicing fitness (ln)” value (30 °C) is -2.82 ± 0.14 and the “self-splicing fitness (ln)” value (37 °C) is -2.11 ± 0.15.
With GGAAAGCAAUAUUACGCUCG, the “self-splicing fitness (ln)” value was -0.352 ± 0.15 (30 °C) and 0.329 ± 0.17 (37 °C).
For GGGUAGCAAUAUUACGCUUU, the “self-splicing fitness (ln)” value is -0.389 ± 0.11 (30 °C) and -0.688 ± 0.12 (37 °C).
UGGCAGCAAUAUUACGGCGG: the “self-splicing fitness (ln)” value by setting is: (30 °C) -0.882 ± 0.11; (37 °C) 0.549 ± 0.15.
Turning to AAGUAGCAAUAUUACGUACG, the “self-splicing fitness (ln)” value by setting is: (30 °C) -1.29 ± 0.088; (37 °C) -0.0022 ± 0.11.
